These results are taken from the supplement of paper PMC9112550, “Optimization of the antimicrobial peptide Bac7 by deep mutational scanning” (BMC Biology, 2022).

The test system of this data set is Escherichia coli TOP10. In words: shrunken log2 fold change of peptide-encoding DNA abundance (4.5 h post-induction vs induction); higher = less antimicrobial activity (less host growth inhibition). Conditions: time post-induction: 4.5 h; library: site-saturation at positions 5, 18, 19, 20.
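Also: peptides expressed intracellularly from a pBAD plasmid library in pooled LB shake-flask culture, induced with 0.3% L-arabinose, DNA abundance read by NGS, three biological replicates, DESeq2 with apeglm shrinkage.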

As to RRIRSRPPRLPRPRPRPNTCPRP, the “shrunken log2 fold change” value was -0.808. The same measure for RRIRARPPRLPRPRPRPLVHPRP: -0.139; for RRIRSRPPRLPRPRPRPGTLPRP: -0.571.

Take RRIRYRPPRLPRPRPRPNRCPRP: the “shrunken log2 fold change” value was determined as 0.00786. The same measure for RRIRVRPPRLPRPRPRPICRPRP: 0.177; for RRIRYRPPRLPRPRPRPTEDPRP: -0.166. The same measure for RRIRVRPPRLPRPRPRPRWHPRP: 0.217; for RRIRPRPPRLPRPRPRPAGAPRP: 0.309. The same measure for RRIRLRPPRLPRPRPRPHELPRP: 0.245; for RRIRKRPPRLPRPRPRPLTHPRP: 0.0737; for RRIRSRPPRLPRPRPRPPNFPRP: 0.291.

For RRIRFRPPRLPRPRPRPRHEPRP, the “shrunken log2 fold change” value came to 0.197. For RRIRYRPPRLPRPRPRPMSKPRP, the “shrunken log2 fold change” value was 3.29. The same measure for RRIRTRPPRLPRPRPRPMIYPRP: -0.465; for RRIRCRPPRLPRPRPRPGEEPRP: 0.135. Take RRIRLRPPRLPRPRPRPCNFPRP: the “shrunken log2 fold change” value is -0.0369.

RRIRYRPPRLPRPRPRPPNSPRP: the “shrunken log2 fold change” value was -0.384. The same measure for RRIRKRPPRLPRPRPRPCYFPRP: -0.00436; for RRIRPRPPRLPRPRPRPKLQPRP: -0.00543. With RRIRKRPPRLPRPRPRPGQWPRP, the “shrunken log2 fold change” value worked out at 0.181. As to RRIRDRPPRLPRPRPRPYSSPRP, the “shrunken log2 fold change” value is -0.152. The same measure for RRIRMRPPRLPRPRPRPVNVPRP: 0.0663; for RRIRTRPPRLPRPRPRPETNPRP: 0.402; for RRIRGRPPRLPRPRPRPAPCPRP: 0.426.

In the case of RRIRSRPPRLPRPRPRPNKYPRP, the “shrunken log2 fold change” value was -0.653.

On to RRIRNRPPRLPRPRPRPCACPRP, for which the “shrunken log2 fold change” value was -0.0293.

As for RRIRTRPPRLPRPRPRPHKEPRP, the “shrunken log2 fold change” value was -0.0263. Turning to RRIRRRPPRLPRPRPRPKGEPRP, the “shrunken log2 fold change” value amounted to 0.0115. The same measure for RRIRPRPPRLPRPRPRPSYDPRP: -0.526; for RRIRTRPPRLPRPRPRPFTMPRP: -0.348; for RRIRARPPRLPRPRPRPEPWPRP: 0.742.

In the case of RRIRKRPPRLPRPRPRPGEVPRP, the “shrunken log2 fold change” value was 0.268. The same measure for RRIRERPPRLPRPRPRPKNMPRP: -0.479. The same measure for RRIRARPPRLPRPRPRPKCAPRP: 0.363; for RRIRTRPPRLPRPRPRPGRMPRP: 0.232; for RRIRWRPPRLPRPRPRPRWCPRP: -0.00787. The same measure for RRIRIRPPRLPRPRPRPTNDPRP: -0.246; for RRIRVRPPRLPRPRPRPNAPPRP: 0.379; for RRIRWRPPRLPRPRPRPGETPRP: 0.174. In the case of RRIRCRPPRLPRPRPRPEIYPRP, the “shrunken log2 fold change” value was -0.0456.

Regarding RRIRTRPPRLPRPRPRPTEWPRP, the “shrunken log2 fold change” value worked out at 0.0143. For RRIRHRPPRLPRPRPRPMLPPRP, the “shrunken log2 fold change” value is -0.0141.

For the sequence RRIRRRPPRLPRPRPRPRGEPRP, the “shrunken log2 fold change” value worked out at 0.739. The same measure for RRIRLRPPRLPRPRPRPGCTPRP: -0.151; for RRIRFRPPRLPRPRPRPNQFPRP: -0.0599; for RRIRCRPPRLPRPRPRPVAHPRP: -0.277.

As for RRIRPRPPRLPRPRPRPIMNPRP, the “shrunken log2 fold change” value was -0.799. The same measure for RRIRIRPPRLPRPRPRPMRCPRP: -0.0263; for RRIRSRPPRLPRPRPRPATGPRP: 0.156; for RRIRKRPPRLPRPRPRPVRKPRP: 0.0395.
